Test [1] deals with T1, ROR121 shuffle variant (Ig-like domain of ROR1, CRD of ROR2, kringle domain of ROR1) (human (ROR1/ROR2 chimera), UniProt Q01973 30-937).
T1 construct: Transiently expressed on CHO cells
T1 chain: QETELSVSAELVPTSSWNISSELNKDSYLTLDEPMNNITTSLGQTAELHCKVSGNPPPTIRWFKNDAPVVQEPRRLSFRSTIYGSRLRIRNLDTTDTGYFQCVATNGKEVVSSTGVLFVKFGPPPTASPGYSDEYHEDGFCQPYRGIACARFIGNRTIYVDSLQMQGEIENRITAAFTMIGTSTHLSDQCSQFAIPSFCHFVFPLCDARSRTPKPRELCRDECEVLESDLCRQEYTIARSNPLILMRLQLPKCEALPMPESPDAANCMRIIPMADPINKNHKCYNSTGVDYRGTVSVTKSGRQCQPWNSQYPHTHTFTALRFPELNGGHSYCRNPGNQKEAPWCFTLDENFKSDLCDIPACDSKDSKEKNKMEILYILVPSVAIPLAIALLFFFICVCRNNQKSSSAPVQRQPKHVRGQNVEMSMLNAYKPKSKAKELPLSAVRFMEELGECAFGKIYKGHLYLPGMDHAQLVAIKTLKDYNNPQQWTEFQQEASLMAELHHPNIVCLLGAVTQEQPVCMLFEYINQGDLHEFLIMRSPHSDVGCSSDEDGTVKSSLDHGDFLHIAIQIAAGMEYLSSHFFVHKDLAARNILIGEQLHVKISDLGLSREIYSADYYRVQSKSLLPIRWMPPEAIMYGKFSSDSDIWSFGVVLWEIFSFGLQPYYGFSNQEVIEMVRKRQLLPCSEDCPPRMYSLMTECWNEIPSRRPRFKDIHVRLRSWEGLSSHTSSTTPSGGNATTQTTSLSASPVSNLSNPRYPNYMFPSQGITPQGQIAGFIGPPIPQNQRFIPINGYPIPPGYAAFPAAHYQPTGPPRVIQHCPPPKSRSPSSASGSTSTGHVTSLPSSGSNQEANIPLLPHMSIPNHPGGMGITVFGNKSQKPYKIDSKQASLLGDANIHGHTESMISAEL
In words: cell imaging (CellInsight) on CHO cells expressing the shuffle construct. Here is the method: Binding was determined […] using a cell imaging screening system (Celllnsight, Thermo Fisher) as per manufacturer's recommendations. In short, CHO cells expressing shuffle constructs ROR112, ROR121, ROR122, ROR211 or ROR221 (3,000 cells/well in 384-well plates) were incubated with antibody or control samples for 18 h at 37° C./5% CO₂, washed and incubated with an Alexa488-labeled detection antibody for 4 h. Hoechst dye was added and fluorescence images were collected, measuring total spot intensity (RFU).

Test [2] has as its target T2, his-tagged ROR2 extracellular domain (ROR2-ECD, G&P Biosciences, cat. no. FCL0192) (human, UniProt Q01974 34-403).
T2 construct: Bought protein; also called human ROR2-ECD; recombinant human ROR2-ECD; not shown: his tag
The test is described as follows: BLI (Octet HTX), antibody on anti-human IgG Fc sensor, ROR2-ECD as analyte. On the procedure:
Experiments were carried out while shaking at 1,000 RPM at 30° C.
Anti-Human IgG Fc Capture (AHC) biosensors (ForteBio, cat. no. 18-5060) were pre-conditioned by exposure to 10 mM glycine (Riedel-de Haen, cat. no. 15527) buffer pH 1.7 for 5 s, followed by neutralization in Sample Diluent (ForteBio, cat. no. 18-1048) for 5 s; both steps were repeated 5 times. Next, AHC sensors were loaded with the antibody (2.5 μg/mL in Sample diluent) for 600 s. After a baseline measurement in Sample Diluent (300 s), the association (1,000 s) and dissociation (1,000 s) of a commercially available his-tagged ROR2 extracellular domain (ROR2-ECD, G&P Biosciences, cat. no. FCL0192) was determined using a concentration range of 6.25-400 nM with two-fold dilution steps in Sample Diluent. The calculated molecular mass of ROR2 ECD based on their amino acid sequences of 42.7 kDa was used for calculations. For each antibody a reference sensor was used, which was incubated with Sample Diluent instead of antigen. AHC sensors were regenerated by exposure to 10 mM glycine buffer pH 1.7 for 5 s, followed by neutralization in Sample Diluent for 5 s; both steps were repeated twice. Subsequently sensors were loaded again with antibody for the next cycle of kinetics measurements.
The Y-axis was aligned to the last 10 s of the baseline, Interstep Correction alignment to dissociation and Savitzky-Golay filtering were applied.
(In general: BLI is a label-free optical method that tracks binding on a fibre tip over time.)

One may read the Kd as the constant that tells how readily two partners part at equilibrium. As a reminder, the koff is a measure of how fast the partners let go of each other. The low end stands for a long-lived complex, the high end for a short-lived complex. As a reminder, the kon is the rate constant with which the complex forms.

B1: chIgG1-ROR2-A (antibody, V domains shown)
VH: QSVEESGGRLVTPGTPLTLTCTVSGFSLSSYSMSWVRQAPGKGLEWIGVIYVNSKTWYANWAKGRFTISKTSTTVDLKITSPTTEDTATYFCARGDAGYTTNSWLWGPGTLVTVSS
VL: AFELTQTPASVSEPVGGTVTIKCQASESIDNYCSWYQQKPGQPPKLLIYQAFKLASGVPSRFRGSGSGTQFTLTISDLESDDAATYYCQSYSGISTTAFGGGTEVVVK
notes: Rabbit-human chimeric antibody; also called ROR2 specific antibody A
As to B1, in test [1], the “RFU (total spot intensity)” value is 0 RFU and the binding result is reported as “no binding (tested: RFU = 0)”. In test [2], this molecule gave a Kd of 1.6 nM, a koff of 0.00095 s⁻¹ and a kon of 610000 M⁻¹ s⁻¹.

The values above are taken from patent publication US20230365714A1 (published 2023).
